Measurements reported in PMC4980223 (Immunology and cell biology, 2016).

Target: the molecule itself
Assay: SEC

B1: recombinant, soluble SRCR trimer (HIS6-SRCR, MARCO residues 400-520) (domain or fragment, human, UniProt Q9UEW3 400-520, looked up)
chain: GVKGSSGEQGVKGEKGERGENSVSVRIVGSSNRGRAEVYYSGTWGTICDDEWQNSDAIVFCRMLGYSKGRALYKVGAGTGQIWLDNVQCRGTESTLWSCTKNSWGHHDCSHEEDAGVECSV
- stoichiometry N: 3
